From publication PMC3265611

Molecular target: T1, Flag-yTdp1 H432N (Saccharomyces cerevisiae, UniProt P38319 1-544, H432N)
T1 sequence: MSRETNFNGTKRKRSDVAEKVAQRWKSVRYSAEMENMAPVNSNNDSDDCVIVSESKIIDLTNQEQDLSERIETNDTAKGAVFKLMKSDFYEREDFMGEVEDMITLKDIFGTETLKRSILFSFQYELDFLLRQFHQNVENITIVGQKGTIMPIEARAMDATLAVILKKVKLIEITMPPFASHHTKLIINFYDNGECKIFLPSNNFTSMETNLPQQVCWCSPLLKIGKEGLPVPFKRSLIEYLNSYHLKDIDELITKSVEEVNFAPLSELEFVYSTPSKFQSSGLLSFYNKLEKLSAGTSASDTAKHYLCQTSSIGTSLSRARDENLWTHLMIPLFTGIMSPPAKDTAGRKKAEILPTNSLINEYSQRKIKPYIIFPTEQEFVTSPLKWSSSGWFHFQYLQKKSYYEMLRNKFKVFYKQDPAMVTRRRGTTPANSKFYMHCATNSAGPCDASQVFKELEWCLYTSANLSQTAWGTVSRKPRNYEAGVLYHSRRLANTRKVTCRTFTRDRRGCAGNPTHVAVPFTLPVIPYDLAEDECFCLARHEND
Test: EMSA

B1: 3'-pY 14-mer substrate (ssDNA)
DNA: GATCTAAAAGACTT
modifications: 3' phosphotyrosine
- binding result: no binding
